Source: the supplement of paper PMC12042874
± gives the uncertainty stated by the source.

Experiment: amyloid nucleation score (Sup35N fusion, yeast selection) (log enrichment); library NNK3; higher = more nucleation; inactive = no reads after selection
Summary of the method: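 For the nucleation score, DiMSum gave the log enrichment of output over input reads, centred on the mode score of non-aggregating sequences. Psi-negative yeast expressing Sup35N fused to peptides of 20 random codons were induced with 100 μM copper sulfate for 24 hours and grown 7 days at 30°C on medium lacking adenine and uracil. Input and output plasmid inserts were Illumina-sequenced, and sequences with under 100 input reads were excluded.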

| Substance | amyloid nucleation score |
| --- | --- |
| SQKFVYLMSPSWPGGQLEAR | inactive |
| SQLAYVGTVKTNFDKISRCG | inactive |
| SQLKMSYRHYPMMMCVIVFS | inactive |
| SQQRQVMPKRQSEKLYPSH | inactive |
| SQRELYH | inactive |
| SQSWMSNLLMGSRDDL | 1.58 ± 0.13 |
| SQTLQKDLAPSAKLCKIPGV | inactive |
| SQYIWFFSVVLSFFSSVSWC | -0.021 ± 0.85 |
| SRAMVKVRSNFRQRK | inactive |
| SRFFGGRYSVLS | inactive |
| SRGTRSK | inactive |
| SRHFTIEVSQFCIISQGVNL | inactive |
| SRITNHDD | inactive |
| SRKGDMPLDIDSWTCTVAFF | 1.13 ± 0.12 |
| SRLIRKMKCVMGSTSSTIGY | inactive |
| SRPLHFVYVIWGCPDQSDRN | inactive |
| SRQRIDYFMVRRSGSWSRQV | inactive |
| SRRVN | inactive |
| SRSCVACGLY | inactive |
| SRSVMIPVNS | -0.038 ± 0.75 |
| SRSVSESDVMGTVGIYAEFS | inactive |
| SRTLTVYRVCHHIESSTNNF | inactive |
| SRVDPLLRNWDCRFSSLLL | 0.935 ± 0.096 |
| SRVFARFDEEDRDNSRKRTV | inactive |

| Substance | amyloid nucleation score |
| --- | --- |
| SRVTSIWRGYNFINIKRGDL | -0.42 ± 1.3 |
| SRWLSDSEIENKWFLISDMT | inactive |
| SRWSGFCIYRGN | inactive |
| SRWTEACI | inactive |
| SSAGVGVAKVGARHRLRRCW | inactive |
| SSAIMCWRFMLMNSILITTP | inactive |
| SSARAKWSDQQMSSYRA | inactive |
| SSEKLMQGFKVRLVCHFLAR | inactive |
| SSFPGWDIECIC | inactive |
| SSFSVSVVSKGKSVRNSGSL | 0.568 ± 0.33 |
| SSFYCRAFGDRNVWKWQWCL | inactive |
| SSGFSKSKYYICVLQFVGVV | inactive |
| SSGGCR | inactive |
| SSGLMLWFDWLLVWRGCRLR | inactive |
| SSIHVGVYYFMCMLEDVSRE | 1.07 ± 0.14 |
| SSITVF | inactive |
| SSKARSQSCVLRMMIPDRQW | inactive |
| SSKNINVILMIKR | 2.05 ± 0.066 |
| SSLCTL | inactive |
| SSLVSCYRIFNRSGADLGLT | inactive |
| SSLWSNK | inactive |
| SSMSRVCEIKVLYNMSGVYT | inactive |
| SSMYISAPSLCYLDFGLEKW | inactive |
| SSNDPQHHVDAGEADQRSRV | inactive |

| Substance | amyloid nucleation score |
| --- | --- |
| SSPCSVMVKVGSDHFERVAI | inactive |
| SSPRPLCPDLRLVDIIQILI | inactive |
| SSRAAVY | inactive |
| SSRINWSASLNSLTVTVD | inactive |
| SSSATGPAYGNKQATFRRLV | -0.457 ± 0.9 |
| SSTPIFFLFFKSVQQVFNFP | 0.722 ± 0.18 |
| SSVKGTYIFIYDVVMLR | inactive |
| SSVVT | inactive |
| SSWFNGSLTVRQLIQRGRLF | inactive |
| SSYLI | inactive |
| SSYSWMGVFIYLDRIINYTH | -0.339 ± 0.63 |
| SSYVLNYIHLSG | 1.88 ± 0.08 |
| STCLTD | inactive |
| STCYSCVMLMVGS | inactive |
| STDNVGMGKGWTGVIGWRVM | inactive |
| STDQSASRVSERQLLCLPLT | inactive |
| STDWDFHMRTFPGHVTKCWK | inactive |
| STLQVVEKPKIAPSLRCDSC | -0.169 ± 0.51 |
| STMWYYMLVVIMRSCRAGDR | 0.793 ± 0.17 |
| STNSRFFSAYCSVVGMRRHA | inactive |
| STNWMVRLFYSRIEWGVNLG | inactive |
| STRAVQIRKSRGFAGYPGN | inactive |
| STRMRYICCSCLL | 2.99 ± 0.078 |
| STSFCSSLDLWSQEVIVASV | inactive |

| Substance | amyloid nucleation score |
| --- | --- |
| STTVTGLYKNFRHYVSGRCG | inactive |
| STVNVCYVSMGNWERLTDVR | 0.446 ± 0.26 |
| STYDRVKNLYVRRSAVVLPS | inactive |
| STYLMSFVLYWLWQRSLDTC | inactive |
| SVAGRCVSWNQRGKGLRNAR | inactive |
| SVASRTSEGTGYSCIIRVFH | inactive |
| SVDDFR | inactive |
| SVDVTFSVYHY | 0.702 ± 0.19 |
| SVERCVIRFCYLQGLYMAAF | inactive |
| SVERVLLRTVASVGGDVDVN | inactive |
| SVFDKGESGRRYGGEV | inactive |
| SVFPSLFNACSDLNSVHKVV | inactive |
| SVGKWMYRPSEYGACCASGY | inactive |
| SVIGTSTSFCLHWLWGWALC | inactive |
| SVLFSLYSSLSYV | 0.548 ± 0.2 |
| SVLLISVEYVAYEFLSHSVR | 2.05 ± 0.097 |
| SVNSVHLMRSSEVGTHEGVG | inactive |
| SVPDTLSDFISCPVNCTFLN | inactive |
| SVRGIKVNLWRKEDLYASTQ | inactive |
| SVSEFSFGSKCIVRRLGI | inactive |
| SVSRFKWGFKQAQWDKQRRY | inactive |
| SVSYFWFARL | -0.005 ± 0.98 |
| SVTLGWSTRCCF | 1.27 ± 0.096 |
| SVVLRYVLRYNRSACESRRR | 0.441 ± 0.21 |

| Substance | amyloid nucleation score |
| --- | --- |
| SVWFGEIRNMGLIEEENRDW | inactive |
| SVWMGVEPGHYLYQRVLGLV | inactive |
| SVYDCQLVACHLMRDHKK | inactive |
| SVYGSVFKNRG | inactive |
| SVYQDCTGGNIPQFGSLAD | inactive |
| SWAVRMAGEYFRNSDMMWCA | inactive |
| SWCVDTSIQFPKAFNIVCGF | inactive |
| SWKGGLQTDDGSKGS | inactive |
| SWLNKIAKVIST | inactive |
| SWMSI | inactive |
| SWRHSCNTRSNDYNIDWE | inactive |
| SWRPAICPLLVMKL | inactive |
| SWSRYNDC | inactive |
| SWVCCF | inactive |
| SWVFFD | inactive |
| SWWKDLVYD | inactive |
| SWYDVRSVPKSMVAMMGWRL | inactive |
| SWYEYCLINSLRKGSGYKEP | inactive |
| SYCDVFTGNNLHLVVSFFYS | 2.7 ± 0.053 |
| SYCYSIAMLAMIFLLMQCVI | -0.011 ± 0.43 |
| SYDVNTDFVLCDYSRDTGSQ | inactive |
| SYGGYQFLYVNSDKLRV | inactive |
